In this assay the target is pre-fusion, protease-resistant, trimeric transmembrane (TM)-deleted spike (S) glycoprotein from SARS-CoV-2 (SARS-CoV-2 (Wuhan-Hu-1) | not stated). Nature of the assay: SEC + other: SDS-PAGE.

Take “pre-fusion, protease-resistant, trimeric transmembrane (TM)-deleted spike (S) glycoprotein from SARS-CoV-2”: the stoichiometry N was 3.

What is called stoichiometry N is a count of units in the complex or per binding partner.
